# Article PMC6141180
# Molecular target: p38α (UniProt P47811)
# Experiment: ITC
# Details: reference: native TAB1 (1-438); sites S423
substance,measurement,value
"TAB1 1-438 (from UniProt Q8CF89) pS423TAB1 (1-438), genetically encoded phosphoserine",binding against the reference,same
